{
  "source": "paper PMC8689142",
  "about": "“Discovery of a Positive Allosteric Modulator of Cholecystokinin Action at CCK1R in Normal and Elevated Cholesterol” (Frontiers in Endocrinology, 2021)",
  "key": {"[1]": {"molecular_target": "human type 1 cholecystokinin receptor (CCK1R), CHO-CCK1R cell line (human) (UniProt P32238)"}, "[2]": {"molecular_target": "T1, type 1 cholecystokinin receptor (CCK1R) (Homo sapiens, UniProt P32238)", "T1 construct": "gene CCKAR; CHO-CCK1R cells and membranes", "T1 sequence (P32238 1-428)": "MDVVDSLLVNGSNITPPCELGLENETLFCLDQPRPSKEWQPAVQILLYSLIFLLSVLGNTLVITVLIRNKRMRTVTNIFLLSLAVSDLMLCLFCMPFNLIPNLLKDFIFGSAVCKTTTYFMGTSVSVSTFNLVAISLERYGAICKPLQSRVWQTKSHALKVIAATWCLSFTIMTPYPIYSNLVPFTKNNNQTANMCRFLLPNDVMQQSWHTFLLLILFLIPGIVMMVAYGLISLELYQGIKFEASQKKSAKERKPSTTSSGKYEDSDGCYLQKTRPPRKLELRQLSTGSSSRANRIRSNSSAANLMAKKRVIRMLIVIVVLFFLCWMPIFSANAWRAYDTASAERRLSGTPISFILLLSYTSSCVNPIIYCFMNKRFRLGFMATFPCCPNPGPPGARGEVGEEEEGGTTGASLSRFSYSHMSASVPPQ", "experiment": "fluorescence polarization kinetics (slowed alexa488-CCK off-rate); calcium assay fitted with operational allosteric model", "type": "cell-based"}, "[3]": {"molecular_target": "Cynomolgus monkey CCK1R (Cynomolgus monkey)"}, "[4]": {"molecular_target": "T2, rat type 1 CCK receptor (rat), P30551", "T2 chain": "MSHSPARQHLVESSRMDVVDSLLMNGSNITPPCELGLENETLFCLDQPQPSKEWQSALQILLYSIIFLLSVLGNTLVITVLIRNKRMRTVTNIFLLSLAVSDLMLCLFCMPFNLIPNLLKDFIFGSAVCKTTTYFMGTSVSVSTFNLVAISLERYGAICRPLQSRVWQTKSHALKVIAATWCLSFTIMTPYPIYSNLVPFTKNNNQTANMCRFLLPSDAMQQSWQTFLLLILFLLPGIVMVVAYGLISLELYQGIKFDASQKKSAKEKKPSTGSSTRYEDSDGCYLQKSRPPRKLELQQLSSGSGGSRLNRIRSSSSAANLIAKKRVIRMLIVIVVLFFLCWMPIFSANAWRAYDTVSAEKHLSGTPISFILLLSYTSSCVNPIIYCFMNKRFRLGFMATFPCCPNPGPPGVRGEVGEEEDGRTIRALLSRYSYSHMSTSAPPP"}, "[5]": {"molecular_target": "Cynomolgus monkey CCK1R (Cynomolgus monkey)", "experiment": "radioligand binding; radioligand competition-binding assay on intact receptor-expressing cells; radioiodinated D-Tyr-Gly-[(Nle28,31)CCK-26-33] as radioligand, unlabeled CCK as competitor; duplicates, at least three independent experiments"}, "[6]": {"molecular_target": "T3, human type 1 cholecystokinin receptor (CCK1R), CHO-CCK1R cell line (human, UniProt P32238 1-428)", "T3 construct": "type 1 cholecystokinin receptor, human, wild type; also called human CCK1R; WT CCK1R; source: CHO-K1 cell line stably expressing the receptor (CHO-CCK1R); intact cells and membranes", "T3 sequence (looked up)": "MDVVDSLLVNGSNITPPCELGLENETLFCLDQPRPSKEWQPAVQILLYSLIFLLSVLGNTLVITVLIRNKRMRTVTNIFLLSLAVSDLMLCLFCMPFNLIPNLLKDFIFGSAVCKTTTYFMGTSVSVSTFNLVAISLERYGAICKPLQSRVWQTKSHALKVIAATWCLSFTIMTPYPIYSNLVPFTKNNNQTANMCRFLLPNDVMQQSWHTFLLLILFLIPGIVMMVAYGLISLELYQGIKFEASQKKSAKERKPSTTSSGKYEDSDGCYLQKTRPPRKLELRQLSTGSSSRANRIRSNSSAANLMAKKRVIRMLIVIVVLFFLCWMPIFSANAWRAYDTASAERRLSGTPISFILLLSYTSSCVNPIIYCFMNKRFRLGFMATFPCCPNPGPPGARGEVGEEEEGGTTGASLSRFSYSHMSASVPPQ", "experiment": "fluorescence polarisation; alexa488-CCK (3.2 nM) added to CHO-CCK1R membranes in KRH buffer, pH 7.4, 0.2% bovine serum albumin; dissociation started with 1 µM unlabeled CCK-8; absence of Compound 1", "details": "one partner purified"}},
  "note": "Non-standard residues stand in square brackets, D forms with d. No end group written: not given here. Alexa 488 = Alexa Fluor 488 fluorescent dye; Nle = CCCC[C@H](N)C(=O)O",
  "data": [
    {"molecule": "Synthetic CCK-58 (peptide)", "values": [
      {"measurement": "pEC50 for CCK, peak intracellular calcium response in CHO cells expressing human CCK1R, + 10 µM Compound 1", "setting": "[1]", "value": 9.9},
      {"measurement": "pEC50 for CCK, peak intracellular calcium response in CHO cells expressing human CCK1R, control", "setting": "[1]", "value": 9.1}
    ]},
    {"molecule": "C=C[C@H]1CN2CC[C@H]1C[C@@H]2CNC(=O)Nc1cccc(C(F)(F)F)c1", "note": "[Compound 1, 3-[(1S,2R,4S,5R)-5-ethenyl-1-azabicyclo[2.2.2]octan-2-yl]methyl-1-[3-(trifluoromethyl)phenyl]urea]", "values": [
      {"measurement": "Kb", "setting": "[2]", "value": 251, "unit": "µM"}
    ]},
    {"molecule": "DYMGWMDF (modifications not checked)", "note": "[Synthetic CCK-26-33 (CCK-8)]", "values": [
      {"measurement": "pEC50 for CCK, peak intracellular calcium response in CHO cells expressing Cynomolgus monkey CCK1R, control", "setting": "[3]", "value": 11.2},
      {"measurement": "pEC50 for CCK, peak intracellular calcium response in CHO cells expressing rat CCK1R, + 10 µM Compound 1", "setting": "[4]", "value": 11.9},
      {"measurement": "pKi", "setting": "[5]", "value": 8.6}
    ]},
    {"molecule": "{Alexa 488}-[dY]GDY[Nle]GW[Nle]DF (ends and bridges not checked)", "note": "[alexa^488-D-Tyr-Gly-[(Nle^28,31)CCK-26-33]]", "values": [
      {"measurement": "koff", "setting": "[6]", "value": 0.0217, "unit": "s⁻¹"},
      {"measurement": "kon", "setting": "[6]", "value": "2.33e+06", "unit": "M⁻¹ s⁻¹"}
    ]}
  ]
}
